Where no end group is shown, it is not given here.
How the values were obtained:
MCF7-Neo cells = test: Microinjection of ANK peptide then nocodazole, mitotic arrest/apoptosis count; format: cell-based; conditions: cells without ANK injection, 0.5 μM nocodazole for 24 hours
Experimental: ANK peptide interference with SNCG-BubR1 association in vivo was examined in a stable breast cancer cell line MCF7 expressing SNCG (MCF7-SNCG) and a control SNCG negative cell line (MCF7-Neo). […] Significant numbers of cells survived after treatment with the ANK peptide by microinjection in both cell lines. After microinjection, cells were treated with 0.5 μM nocodazole for 24 hours and the fraction of mitotically arrested cells was counted.
MCF7-SNCG and MCF-Neo were grown to 80% confluence, split with trypsin and seeded on a 22 mm glass coverslip treated with human fibronectin ([…]) into 60 mm diameter dishes containing cell maintenance medium for 24 hours and utilized for the experiments. In initial experiments ANK peptide (5, 10 or 100 μM) was microinjected. In all further experiment to date, ANK peptide (10 μM), together with goat IgG (1 mg/ml) and fluoroscein isothiocyanate (FITC, 5 mg/ml; Molecular Probes) into the MCF7-SNCG or MCF7-Neo cells under a 40× magnification of phase contrast microscope (Carl Zeiss Inc.) using a pressure injection system (Femtojet, Eppendorf). To exclude the possibility that microinjection might affect cell cycle and proliferation, MCF7-Neo and MCF7-SNCG were microinjected with goat IgG as a control. Injections were done at a constant flow setup by varying the injection pressure Pc between 40-70 units. The microscope stage was kept at 37° C. using thermal control device (Tempcontrol-37-2 Digital). Approximately 25-30 cells were microinjected in each experiment (n=3). Cells were quickly incubated to revive. […]
For the immunofluorescence experiments, cells were fixed in 0.5% buffered paraformaldehyde for 8 minutes at room temperature. […] Cells were scored by identifying cells containing Alexa Fluor 488 excited at 488 nm, and the emission measured at 500-535 nm; DAPI was excited at 345 nm and the emission was measured at 445 nm. […] Mitotic index was determined as described by Gupta et al. (Oncogene 2003 22:7593-7599) and Inaba et al. Breast Cancer Res. Treat. […]

SNCG = SNCG (Homo sapiens, UniProt O76070); test: Co-immunoprecipitation of EGFP-ANK deletion peptides with anti-SNCG antibody; format: binding; set-up: expressed in transfected cells; host or cells: MCF7-SNCG (MCF7 stably expressing SNCG); conditions: MCF7-neo and MCF7-SNCG clones transfected with pEGFP-ANK deletion peptide plasmids
Chain of SNCG (O76070 whole entry): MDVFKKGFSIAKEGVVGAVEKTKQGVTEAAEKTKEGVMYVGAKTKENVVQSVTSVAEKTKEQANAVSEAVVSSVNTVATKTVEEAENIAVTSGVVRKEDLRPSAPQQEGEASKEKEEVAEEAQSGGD

[1] = biological target: SNCG expressed in cells (MCF7-SNCG, T47D, or COS7 transfected with pCI-SNCG) (UniProt O76070 1-127, limits assumed); test: cell-based or functional assay
Chain of SNCG expressed in cells (MCF7-SNCG, T47D, or COS7 transfected with pCI-SNCG) (O76070 whole entry, stated change not applied, the tested form may be a part): as the sequence (O76070 whole entry) above

[2] = biological target: T1, glutathione S-transferase (GST)-SNCG fusion protein (human, UniProt O76070 1-127); test: SPR, ANK peptide immobilised, GST-SNCG analyte, global fit, two-phase reaction (conformation change) model, kd1
T1 construct: Expressed in E. coli BL21 (DE3), eluted with reduced glutathione; Used as analyte in SPR, in the cell in ITC and as bait in the GST pull-down; not shown: glutathione S-transferase tag encoded by the pGEX-4T-3 vector (Amersham Biosciences); vector linker with thrombin site between GST and the BamH1 site
T1 sequence (O76070 whole entry, the tested form may be a part): as the sequence (O76070 whole entry) above

[3] = biological target: T1, glutathione S-transferase (GST)-SNCG …; test: SPR, ANK peptide immobilised, GST-SNCG analyte, global fit, two-phase reaction (conformation change) model, kd2
[4] = biological target: T1, glutathione S-transferase (GST)-SNCG …; test: SPR, ANK peptide immobilised, GST-SNCG analyte, apparent overall Kd
[5] = biological target: T2, synuclein-gamma (SNCG), recombinant, released from GST-SNCG by thrombin (human, UniProt O76070 1-127); test: intrinsic tyrosine fluorescence of 30 µM SNCG titrated with ANK peptide
T2 construct: 15N-labelled for NMR; also called native SNCG; Breast Cancer Specific Gene 1
T2 sequence (O76070 whole entry): as above

[6] = biological target: T1, glutathione S-transferase (GST)-SNCG …; test: ITC, ANK peptide titrated into GST-SNCG, sequential binding site model, first binding site
[7] = biological target: T3, glutathione S-transferase (GST) (UniProt P08515 1-218 = GST); test: SPR (BIACORE 3000), ANK peptide immobilised, GST as analyte
T3 construct: Control for GST-SNCG in SPR
T3 sequence (P08515 whole entry): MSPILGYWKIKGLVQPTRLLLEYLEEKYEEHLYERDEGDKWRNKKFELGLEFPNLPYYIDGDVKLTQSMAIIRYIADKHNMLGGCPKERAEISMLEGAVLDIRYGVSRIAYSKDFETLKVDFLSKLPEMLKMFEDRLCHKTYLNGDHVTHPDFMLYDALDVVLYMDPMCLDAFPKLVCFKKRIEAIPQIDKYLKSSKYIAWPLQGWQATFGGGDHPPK

Question: How did the “degree of mitotic arrest in MCF7-Neo cells as compared to MCF7-SNCG cells” value (MCF7-Neo cells) turn out when `COC(=O)Nc1nc2ccc(C(=O)c3cccs3)cc2[nH]1` [nocodazole, reference compound] was run?
Answer: significantly higher degree of mitotic arrest

Question: “EGFP-ANK deletion peptide P8: EGFP fusion of deletion peptide P8 GANVTMQN, expressed from pEGFP-C2 plasmid in cells (not fully specified (N-terminus); also: EGFP fusion protein (recombinant))” was tested. Which “interaction with SNCG by co-IP” value (SNCG) did it give?
Answer: identified to interact

Question: With “EGFP-ANK deletion peptide P12: EGFP fusion of deletion peptide P12 GNSALHVASQHG, expressed from pEGFP-C2 plasmid in cells (not fully specified (N-terminus); also: EGFP fusion protein (recombinant))” as the molecule, how does the “interaction with SNCG by co-IP” value (SNCG) read?
Answer: identified to interact

Question: With KGNSALHVASQHGHLGCIQTLVRYGANVTMQNHG (other, not shown: large carriers, not fully specified (N-terminus); also: EGFP fusion protein (recombinant)) [enhanced green fluorescent protein (EGFP)-ANK fusion protein] as the molecule, how does the “apoptotic cell populations (DAPI staining) after paclitaxel” value [1] read?
Answer: 5 fold

Question: And the “apoptotic/dead cell population, flow cytometric cell cycle analysis after 0.5 µM paclitaxel, MCF7-SNCG cells” value [1]?
Answer: ~4 fold

Question: And the “positive phosphorylated histones (anti-phospho-H3 staining, flow cytometry), MCF7-SNCG cells” value [1]?
Answer: 3.5 fold

B1: ANK peptide KGNSALHVASQHGHLGCIQTLVRYGANVTMQNHG (SEQ ID NO:1) (peptide)
peptide: Ac-KGNSALHVASQHGHLGCIQTLVRYGANVTMQNHG-NH2
notes: For SPR it was immobilised on a CM5 chip by ligand thiol coupling; also called ankyrin repeat-like peptide
Question: B1 was tested. Which koff [2] did it give?
Answer: 0.014 s⁻¹

Question: And the koff [3]?
Answer: 0.000802 s⁻¹

Question: And the Kd [4]?
Answer: 73.4 µM

Question: And the Kd [5]?
Answer: ~100 µM

Question: And the Kd [6]?
Answer: 70 µM

Question: And the ΔH [6]?
Answer: 2.17 kcal/mol

Question: Does B1 bind [7]?
Answer: no binding
